Results taken from IntAct's records for PubMed 25416956.
One block for each substance: values may come before it.

Legend:
reep6_human REEP6 [1] = molecular target: reep6_human REEP6 (UniProt Q96HR9)
tm239_human TMEM239 [2] = molecular target: tm239_human TMEM239 (UniProt Q8WW34)
praf1_human RABAC1 [3] = molecular target: praf1_human RABAC1 (UniProt Q9UI14)
tfp11_human TFIP11 [4] = molecular target: tfp11_human TFIP11 (UniProt Q9UBB9)
ldaf1_human LDAF1 [5] = molecular target: ldaf1_human LDAF1 (UniProt Q96B96)
praf1_human RABAC1 [6] = molecular target: praf1_human RABAC1 (UniProt Q9UI14); remark: listed apart in the source
tm239_human TMEM239 [7] = molecular target: tm239_human TMEM239 (UniProt Q8WW34); remark: listed apart in the source
atrap_human AGTRAP = atrap_human AGTRAP (UniProt Q6RW13)
reep6_human REEP6 [8] = molecular target: reep6_human REEP6 (UniProt Q96HR9); remark: listed apart in the source
ldaf1_human LDAF1 [9] = molecular target: ldaf1_human LDAF1 (UniProt Q96B96); remark: listed apart in the source
tfp11_human TFIP11 [10] = molecular target: tfp11_human TFIP11 (UniProt Q9UBB9); remark: listed apart in the source
tm239_human TMEM239 [11] = molecular target: tm239_human TMEM239 (UniProt Q8WW34); remark: listed apart in the source
praf1_human RABAC1 [12] = molecular target: praf1_human RABAC1 (UniProt Q9UI14); remark: listed apart in the source
reep6_human REEP6 [13] = molecular target: reep6_human REEP6 (UniProt Q96HR9); remark: listed apart in the source
tfp11_human TFIP11 [14] = molecular target: tfp11_human TFIP11 (UniProt Q9UBB9); remark: listed apart in the source
ldaf1_human LDAF1 [15] = molecular target: ldaf1_human LDAF1 (UniProt Q96B96); remark: listed apart in the source

Chain of praf1_human RABAC1 (Q9UI14 whole entry): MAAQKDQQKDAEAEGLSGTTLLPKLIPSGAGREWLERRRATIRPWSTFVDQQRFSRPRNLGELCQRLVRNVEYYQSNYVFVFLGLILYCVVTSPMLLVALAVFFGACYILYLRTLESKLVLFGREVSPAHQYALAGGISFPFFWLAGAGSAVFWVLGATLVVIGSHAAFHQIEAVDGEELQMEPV
Chain of tfp11_human TFIP11 (Q9UBB9 whole entry): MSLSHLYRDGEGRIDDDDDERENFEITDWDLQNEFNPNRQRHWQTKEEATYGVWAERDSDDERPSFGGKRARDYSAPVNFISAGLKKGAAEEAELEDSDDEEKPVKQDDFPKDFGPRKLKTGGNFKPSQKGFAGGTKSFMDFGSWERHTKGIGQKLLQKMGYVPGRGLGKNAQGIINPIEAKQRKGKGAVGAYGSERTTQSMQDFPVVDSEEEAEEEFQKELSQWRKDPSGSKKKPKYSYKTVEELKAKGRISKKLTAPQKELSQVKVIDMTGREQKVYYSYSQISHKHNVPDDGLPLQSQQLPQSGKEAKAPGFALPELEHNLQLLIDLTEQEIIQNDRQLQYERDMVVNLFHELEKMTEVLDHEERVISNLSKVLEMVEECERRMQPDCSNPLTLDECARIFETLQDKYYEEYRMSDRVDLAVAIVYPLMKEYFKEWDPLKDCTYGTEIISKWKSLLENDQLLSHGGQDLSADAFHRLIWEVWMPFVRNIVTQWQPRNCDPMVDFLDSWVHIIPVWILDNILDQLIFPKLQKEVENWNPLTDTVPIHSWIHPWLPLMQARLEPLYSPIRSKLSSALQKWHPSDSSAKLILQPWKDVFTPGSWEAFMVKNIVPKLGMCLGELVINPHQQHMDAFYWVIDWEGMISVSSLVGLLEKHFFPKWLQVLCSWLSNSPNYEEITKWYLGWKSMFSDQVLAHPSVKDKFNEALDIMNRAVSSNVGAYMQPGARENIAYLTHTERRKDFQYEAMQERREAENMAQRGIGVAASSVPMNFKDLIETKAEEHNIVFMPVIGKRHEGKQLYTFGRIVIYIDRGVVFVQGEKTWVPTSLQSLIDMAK
Chain of ldaf1_human LDAF1 (Q96B96 whole entry): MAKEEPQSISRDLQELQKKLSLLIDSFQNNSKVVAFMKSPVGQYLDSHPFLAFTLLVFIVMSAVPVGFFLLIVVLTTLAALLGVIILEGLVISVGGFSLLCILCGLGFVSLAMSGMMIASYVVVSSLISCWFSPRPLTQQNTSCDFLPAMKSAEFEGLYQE
Chain of reep6_human REEP6 (Q96HR9 whole entry): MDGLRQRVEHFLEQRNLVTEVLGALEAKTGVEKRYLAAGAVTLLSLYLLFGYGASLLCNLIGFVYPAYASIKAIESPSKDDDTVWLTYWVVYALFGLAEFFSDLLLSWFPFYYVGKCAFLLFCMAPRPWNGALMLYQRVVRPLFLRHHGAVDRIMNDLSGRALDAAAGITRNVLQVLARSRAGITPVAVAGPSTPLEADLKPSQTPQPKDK
Chain of tm239_human TMEM239 (Q8WW34 whole entry): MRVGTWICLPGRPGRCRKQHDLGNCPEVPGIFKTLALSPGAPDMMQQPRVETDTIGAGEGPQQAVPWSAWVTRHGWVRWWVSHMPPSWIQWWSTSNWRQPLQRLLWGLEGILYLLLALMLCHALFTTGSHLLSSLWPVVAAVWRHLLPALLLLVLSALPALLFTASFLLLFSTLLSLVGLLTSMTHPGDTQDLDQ
Chain of atrap_human AGTRAP (Q6RW13 whole entry): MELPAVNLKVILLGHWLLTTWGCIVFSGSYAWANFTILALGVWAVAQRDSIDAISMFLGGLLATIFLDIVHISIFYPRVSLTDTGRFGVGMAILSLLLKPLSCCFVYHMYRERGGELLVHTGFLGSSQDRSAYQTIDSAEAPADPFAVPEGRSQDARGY

- effect of a mutation on the interaction (reep6_human REEP6 [1]): disrupting interaction
- effect of a mutation on the interaction (tm239_human TMEM239 [2]): disrupting interaction
- effect of a mutation on the interaction (praf1_human RABAC1 [3]): disrupting interaction
- effect of a mutation on the interaction (tfp11_human TFIP11 [4]): disrupting interaction
- effect of a mutation on the interaction (ldaf1_human LDAF1 [5]): disrupting interaction
Substance: Atypical kinase COQ8A, mitochondrial (Homo sapiens), Q8NI60 E551K

- effect of a mutation on the interaction (praf1_human RABAC1 [6]): disrupting interaction
- effect of a mutation on the interaction (tm239_human TMEM239 [7]): disrupting interaction
- effect of a mutation on the interaction (atrap_human AGTRAP): disrupting interaction
- effect of a mutation on the interaction (reep6_human REEP6 [8]): disrupting interaction
- effect of a mutation on the interaction (ldaf1_human LDAF1 [9]): disrupting interaction
- effect of a mutation on the interaction (tfp11_human TFIP11 [10]): disrupting interaction
Substance: Atypical kinase COQ8A, mitochondrial (Homo sapiens), Q8NI60 R213W

- effect of a mutation on the interaction (tm239_human TMEM239 [11]): disrupting interaction
- effect of a mutation on the interaction (praf1_human RABAC1 [12]): disrupting interaction
- effect of a mutation on the interaction (reep6_human REEP6 [13]): disrupting interaction
- effect of a mutation on the interaction (tfp11_human TFIP11 [14]): disrupting interaction
- effect of a mutation on the interaction (ldaf1_human LDAF1 [15]): disrupting interaction
Substance: Atypical kinase COQ8A, mitochondrial (Homo sapiens), Q8NI60 G272V
